# Measured values reported in article PMC3961674.
# Molecular target: variant 92787 (77405 N-terminally fused to wild-type ubiquitin carrying an S57C substitution) (human) (UniProt P0CG48)
# Assay: affinity chromatography; 92787 coupled to SulfoLink resin (1 ml columns); 200 μg of 67B89 spiked into 2 ml of PBS, NHDF cell lysate or serum, washed with PBS pH 7.4, eluted with PBS pH 2.2; fractions on SDS-PAGE
# 67B89 (ED-B domain of fibronectin flanked by its N-terminal domains 6 and 7 and C-terminal domains 8 and 9), sequence (P02751 1080-1541): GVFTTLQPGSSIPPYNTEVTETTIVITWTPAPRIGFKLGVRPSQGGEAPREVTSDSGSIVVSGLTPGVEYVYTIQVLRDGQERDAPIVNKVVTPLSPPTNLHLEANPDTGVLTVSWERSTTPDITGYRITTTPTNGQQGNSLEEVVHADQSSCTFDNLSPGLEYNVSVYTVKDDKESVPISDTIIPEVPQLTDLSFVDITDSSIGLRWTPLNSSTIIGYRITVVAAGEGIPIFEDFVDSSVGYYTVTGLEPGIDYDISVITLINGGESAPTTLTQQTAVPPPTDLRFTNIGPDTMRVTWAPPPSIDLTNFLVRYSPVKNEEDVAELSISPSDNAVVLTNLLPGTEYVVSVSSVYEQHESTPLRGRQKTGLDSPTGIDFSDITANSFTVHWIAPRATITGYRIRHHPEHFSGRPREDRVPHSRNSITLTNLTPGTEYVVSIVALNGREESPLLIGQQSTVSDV
substance,measurement,value
67B89 (ED-B domain of fibronectin flanked by its N-terminal domains 6 and 7 and C-terminal domains 8 and 9) (from UniProt P02751-7 1080-1541) (domain or fragment),percent of applied 67B89 recovered from the 92787 resin,> 85%
